According to patent US20240327530A1 (ICHNOS SCIENCES, published 2024):

T1: Recombinant mouse IL-1RAP Fc fusion protein (Sino Biologicals, catalog no. 52657-M02H) (mouse, UniProt Q61730 21-350)
T1 construct: Bought; not shown: Fc part of the bought fusion protein
T1 sequence: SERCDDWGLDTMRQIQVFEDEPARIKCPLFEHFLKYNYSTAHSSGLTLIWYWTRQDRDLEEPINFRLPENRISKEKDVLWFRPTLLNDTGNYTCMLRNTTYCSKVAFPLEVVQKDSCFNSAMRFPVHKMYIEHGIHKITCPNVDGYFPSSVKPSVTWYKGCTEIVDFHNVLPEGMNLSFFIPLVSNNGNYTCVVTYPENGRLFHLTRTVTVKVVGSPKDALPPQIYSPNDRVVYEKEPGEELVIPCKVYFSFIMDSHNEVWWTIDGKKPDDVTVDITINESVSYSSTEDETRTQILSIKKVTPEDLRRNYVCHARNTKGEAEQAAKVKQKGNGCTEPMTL

T2: Recombinant cynomolgus monkey IL-1RAP-ECD(S21-E359)-avi-his protein (cynomolgus monkey, UniProt P59822 21-359 (rhesus entry))
T2 construct: also called cyno IL-1RAP-ECD-Avi-His; recombinant cynomolgus monkey IL-1RAP-avi-his protein
T2 sequence: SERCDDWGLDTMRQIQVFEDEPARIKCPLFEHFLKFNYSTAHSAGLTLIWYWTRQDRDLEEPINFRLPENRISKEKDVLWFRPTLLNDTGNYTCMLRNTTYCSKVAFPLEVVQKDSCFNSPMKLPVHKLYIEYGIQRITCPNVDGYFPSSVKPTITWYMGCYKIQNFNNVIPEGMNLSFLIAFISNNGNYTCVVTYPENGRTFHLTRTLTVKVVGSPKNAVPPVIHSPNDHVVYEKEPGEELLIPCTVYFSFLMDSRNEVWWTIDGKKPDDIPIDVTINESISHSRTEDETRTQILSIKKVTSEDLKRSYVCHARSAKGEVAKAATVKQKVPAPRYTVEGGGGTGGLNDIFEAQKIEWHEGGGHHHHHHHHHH

T3: Recombinant human IL-1RAP Fc fusion protein (Acrobiosystems, catalog no. ILP-H5256) (human, UniProt Q9NPH3 21-359, limits assumed)
T3 construct: Bought; not shown: Fc part of the bought fusion protein
T3 sequence: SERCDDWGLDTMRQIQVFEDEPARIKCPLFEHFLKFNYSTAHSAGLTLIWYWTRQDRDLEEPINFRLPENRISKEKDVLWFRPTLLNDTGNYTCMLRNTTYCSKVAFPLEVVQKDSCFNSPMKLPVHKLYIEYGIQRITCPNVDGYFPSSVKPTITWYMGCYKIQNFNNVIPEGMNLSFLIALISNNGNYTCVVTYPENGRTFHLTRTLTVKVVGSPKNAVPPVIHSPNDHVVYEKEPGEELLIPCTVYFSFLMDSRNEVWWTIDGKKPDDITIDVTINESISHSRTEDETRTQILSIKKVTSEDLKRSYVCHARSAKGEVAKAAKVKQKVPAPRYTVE


Assays:
[1] = biological target: T1, Recombinant mouse IL-1RAP Fc fusion …; assay: SPR, mouse IL-1RAP-Fc captured, Fab as analyte
Experimental: (§1) Surface plasmon resonance (SPR) was used to measure the binding affinities of the Fab fragments for human, cynomolgus monkey and/or mouse IL-1RAP. Affinities were measured on a BIACORE™ T200 instrument (BIACORE™, GE […]®) at 25° C. and analyzed with the BIACORE™ T200 Evaluation Software (v3.1). Measurements were performed on Series S CM5 sensor chips (BIACORE™ T200, BIACORE™, GE […]®, catalog no. BR100530) coupled with anti-human IgG Fc (BIACORE™, GE […]®, catalog no. BR100839) using a commercial amine coupling kit (BIACORE™, GE […]®, catalog no. BR100050) or on Series S BiotinCAPture chips (BIACORE™, GE […]®, catalog no. 28920234). SPR measurements were performed with commercially available recombinant human IL-1RAP Fc fusion protein (Acrobiosystems, catalog no. ILP-H5256) and recombinant mouse IL-1RAP Fc fusion protein (Sino Biologicals, catalog no. 52657-M02H) or with biotinylated recombinant cynomolgus monkey IL-1RAP-avi-his protein produced in-house (SEQ ID NO. 2).
(§2) The affinities to human, cynomolgus monkey and mouse IL-1RAP were assessed by immobilizing IL-1RAP and using Fab fragments as analyte. Around 100 RU of human or mouse IL-1RAP Fc fusion protein were captured on fc2 of a Series S CM5 sensor chip coupled with anti-human IgG Fc and around 150 RU of biotinylated cynomolgus monkey IL-1RAP protein were captured on fc2 of a Series S BiotinCAPture chip. Fab fragments were injected in single cycle kinetic at different concentrations ranging from 7.8 to 500 nM, in HBS-EP+ buffer (BIACORE™, GE […]®, catalog no. BR100669) at a flow rate of 30 μl/min for 3 min on fc1 and fc2 (fc1 being used as reference). Dissociation was monitored for 5 min. After each cycle, the surface was regenerated with 60 μl of regeneration solution provided with anti-human IgG Fc capture kit (BIACORE™, GE […]®, catalog no. BR100839) or BiotinCAPture kit (BIACORE™, GE […]®, catalog no. 28920234) respectively. Experimental data were processed using the 1:1 Langmuir kinetic fitting model. Measurements included zero-concentration samples for referencing. Chi², U- and residual values were used to evaluate the quality of a fit between the experimental data and individual binding models.

[2] = biological target: T2, Recombinant cynomolgus monkey …; assay: SPR, biotinylated cyno IL-1RAP-avi-his captured, Fab as analyte, 1:1 fit
Experimental: as §1, §2

[3] = biological target: T3, Recombinant human IL-1RAP Fc fusion …; assay: SPR, human IL-1RAP-Fc captured, Fab as analyte, 1:1 fit
Experimental: as §1, §2

Binder | binding result [1] | Kd [2] | Kd [3]
Anti-IL-1RAP-UCP02-H8-Fab (Fab, V domains shown) VH: QVQLVQSGAEVKKPGSSVKVSCKASGGVFSGYAISWVRQAPGQGLEWMGGIIPEFGATNYAQKFQGRVTITADESTSTAYMELSSLRSEDTAVYYCARHSSAYSPWFDYWGQGTLVTVSS VL: not shown | no binding (tested: 7.8 to 500 nM Fab) | 297 nM | 328 nM
Anti-IL-1RAP-UCP02-C9-Fab (Fab, V domains shown) VH: QVQLVQSGAEVKKPGSSVKVSCKASGGVFSYYAFHWVRQAPGQGLEWMGGIIPGYGATFYAQKFQGRVTITADESTSTAYMELSSLRSEDTAVYYCARPVSYSSGWYDYWGQGTLVTVSS VL: not shown | no binding (tested: 7.8 to 500 nM Fab) | 27.8 nM | 35.6 nM
Anti-IL-1RAP-UCP02-H9-Fab (Fab, V domains shown) VH: QVQLVQSGAEVKKPGSSVKVSCKASGGPFSSYALSWVRQAPGQGLEWMGGIIPHHGATYYAQKFQGRVTITADESTSTAYMELSSLRSEDTAVYYCARHPDVYTPWFDVWGQGTLVTVSS VL: not shown | no binding (tested: 7.8 to 500 nM Fab) | 682 nM | 907 nM
Anti-IL-1RAP-UCP02-D2-Fab (Fab, V domains shown) VH: QVQLVQSGAEVKKPGSSVKVSCKASGGRFSDSAIHWVRQAPGQGLEWMGYILPQFGAPLYAQKFQGRVTITADESTSTAYMELSSLRSEDTAVYYCARGSYYGVVGYVPDDYWGQGTLVTVSS VL: not shown | no binding (tested: 7.8 to 500 nM Fab) | 50.9 nM | 49 nM
Anti-IL-1RAP-UCP03-B6-Fab (Fab, V domains shown) VH: QVQLVQSGAEVKKPGSSVKVSCKASGDPFSVYIIHWVRQAPGQGLEWMGYIIAQQGSASYAQKFQGRVTITADESTSTAYMELSSLRSEDTAVYYCARVPDPYSGHFDYWGQGTLVTVSS VL: not shown | no binding (tested: 7.8 to 500 nM Fab) | 756 nM | 545 nM
Anti-IL-1RAP-UCP02-G11-Fab (Fab, V domains shown) VH: QVQLVQSGAEVKKPGSSVKVSCKASGGQFNDYAIHWVRQAPGQGLEWMGYIIPAYGQAEYAQKFQGRVTITADESTSTAYMELSSLRSEDTAVYYCARVPYSTAYFDYWGQGTLVTVSS VL: not shown | no binding (tested: 7.8 to 500 nM Fab) | 345 nM | 260 nM
Anti-IL-1RAP-UCP02-A4-Fab (Fab, V domains shown) VH: QVQLVQSGAEVKKPGSSVKVSCKASGGVFSYYAISWVRQAPGQGLEWMGAIIPDFGHTIYAQKFQGRVTITADESTSTAYMELSSLRSEDTAVYYCARASPYKGWWDYWGQGTLVTVSS VL: not shown | no binding (tested: 7.8 to 500 nM Fab) | 103 nM | 84.3 nM
Anti-IL-1RAP-UCP03-A3-Fab (Fab, V domains shown) VH: QVQLVQSGAEVKKPGSSVKVSCKASGGLFNENAIHWVRQAPGQGLEWMGGIIPDVGAAFYAQKFQGRVTITADESTSTAYMELSSLRSEDTAVYYCARGSIYTAWFAVWGQGTLVTVSS VL: not shown | no binding (tested: 7.8 to 500 nM Fab) | 177 nM | 137 nM
Anti-IL-1RAP-UCP03-C1-Fab (Fab, V domains shown) VH: QVQLVQSGAEVKKPGSSVKVSCKASGGRFSSNAISWVRQAPGQGLEWMGGIIPHFGAVYYAQKFQGRVTITADESTSTAYMELSSLRSEDTAVYYCARGSVYTGWFDNWGQGTLVTVSS VL: not shown | no binding (tested: 7.8 to 500 nM Fab) | 761 nM | 573 nM
Anti-IL-1RAP-UCP02-A6-Fab (Fab, V domains shown) VH: QVQLVQSGAEVKKPGSSVKVSCKASGGAFRIYAIHWVRQAPGQGLEWMGGILASGGGAVYAQKFQGRVTITADESTSTAYMELSSLRSEDTAVYYCARAKDIYGYGYGDIWGQGTLVTVSS VL: not shown | no binding (tested: 7.8 to 500 nM Fab) | 197 nM | 223 nM
Anti-IL-1RAP-UCP02-C8-Fab (Fab, V domains shown, also called anti-IL-1RAP-C8; anti-IL-1RAP-C8 Fab) VH: QVQLVQSGAEVKKPGSSVKVSCKASGGQFSEYAIQWVRQAPGQGLEWMGYIIPLHGQVDYAQKFQGRVTITADESTSTAYMELSSLRSEDTAVYYCARGQTLYDSGRQFDIWGQGTLVTVSS VL: not shown | no binding (tested: 7.8 to 500 nM Fab) | 2.2 nM | 2.2 nM
Anti-IL-1RAP-UCP03-A2-Fab (Fab, V domains shown) VH: QVQLVQSGAEVKKPGSSVKVSCKASGGKFNFDVIHWVRQAPGQGLEWMGGIIPDFASTHYAQKFQGRVTITADESTSTAYMELSSLRSEDTAVYYCARVPDYYTGWMAYWGQGTLVTVSS VL: not shown | no binding (tested: 7.8 to 500 nM Fab) | 589 nM | 582 nM

The next lines start with the values.

binding result [1] | Kd [2] | Kd [3] | Binder
no binding (tested: 7.8 to 500 nM Fab) |  | 888 nM | Anti-IL-1RAP-UCP03-F4-Fab (Fab, V domains shown) VH: QVQLVQSGAEVKKPGSSVKVSCKASGGGFSEYAIHWVRQAPGQGLEWMGAILPEQGAAYYAQKFQGRVTITADESTSTAYMELSSLRSEDTAVYYCARVGLYVPYMDIWGQGTLVTVSS VL: not shown
no binding (tested: 7.8 to 500 nM Fab) | 220 nM | 221 nM | Anti-IL-1RAP-UCP03-B4-Fab (Fab, V domains shown) VH: QVQLVQSGAEVKKPGSSVKVSCKASGGPFSQHAISWVRQAPGQGLEWMGGIIPFEGVAFYAQKFQGRVTITADESTSTAYMELSSLRSEDTAVYYCARSSSYYSWLDYWGQGTLVTVSS VL: not shown
no binding (tested: 7.8 to 500 nM Fab) | 334 nM | 368 nM | Anti-IL-1RAP-UCP02-C5-Fab (Fab, V domains shown) VH: QVQLVQSGAEVKKPGSSVKVSCKASGGHFNIYAISWVRQAPGQGLEWMGYIIPSLGAVDYAQKFQGRVTITADESTSTAYMELSSLRSEDTAVYYCARASIYHGWMAYWGQGTLVTVSS VL: not shown
no binding (tested: 7.8 to 500 nM Fab) | 296 nM | 230 nM | Anti-IL-1RAP-UCP02-G3-Fab (Fab, V domains shown) VH: QVQLVQSGAEVKKPGSSVKVSCKASGGYLNEYAIHWVRQAPGQGLEWMGAVIPRYGQTYYAQKFQGRVTITADESTSTAYMELSSLRSEDTAVYYCARPLGYSYGWFDYWGQGTLVTVSS VL: not shown
no binding (tested: 7.8 to 500 nM Fab) | 116 nM | 73.5 nM | Anti-IL-1RAP-UCP02-G8-Fab (Fab, V domains shown) VH: QVQLVQSGAEVKKPGSSVKVSCKASGGFFSIYAISWVRQAPGQGLEWMGGIAPAAGIAEYAQKFQGRVTITADESTSTAYMELSSLRSEDTAVYYCARGQSPGRVREEYWYDYWGQGTLVTVSS VL: not shown
